Patent publication US20190185562A1 (Regeneron, published 2019)

T1: extracellular domain of human LEPR, GPI-anchored on HEK293/hLEPR-GPI cells (human, UniProt P48357 22-839, GPI anchor at the C-terminus ; GPI anchor at the C-terminus, added through the carboxypeptidase M signal peptide. The protein is displayed on the HEK293 cell membrane.)
T1 sequence: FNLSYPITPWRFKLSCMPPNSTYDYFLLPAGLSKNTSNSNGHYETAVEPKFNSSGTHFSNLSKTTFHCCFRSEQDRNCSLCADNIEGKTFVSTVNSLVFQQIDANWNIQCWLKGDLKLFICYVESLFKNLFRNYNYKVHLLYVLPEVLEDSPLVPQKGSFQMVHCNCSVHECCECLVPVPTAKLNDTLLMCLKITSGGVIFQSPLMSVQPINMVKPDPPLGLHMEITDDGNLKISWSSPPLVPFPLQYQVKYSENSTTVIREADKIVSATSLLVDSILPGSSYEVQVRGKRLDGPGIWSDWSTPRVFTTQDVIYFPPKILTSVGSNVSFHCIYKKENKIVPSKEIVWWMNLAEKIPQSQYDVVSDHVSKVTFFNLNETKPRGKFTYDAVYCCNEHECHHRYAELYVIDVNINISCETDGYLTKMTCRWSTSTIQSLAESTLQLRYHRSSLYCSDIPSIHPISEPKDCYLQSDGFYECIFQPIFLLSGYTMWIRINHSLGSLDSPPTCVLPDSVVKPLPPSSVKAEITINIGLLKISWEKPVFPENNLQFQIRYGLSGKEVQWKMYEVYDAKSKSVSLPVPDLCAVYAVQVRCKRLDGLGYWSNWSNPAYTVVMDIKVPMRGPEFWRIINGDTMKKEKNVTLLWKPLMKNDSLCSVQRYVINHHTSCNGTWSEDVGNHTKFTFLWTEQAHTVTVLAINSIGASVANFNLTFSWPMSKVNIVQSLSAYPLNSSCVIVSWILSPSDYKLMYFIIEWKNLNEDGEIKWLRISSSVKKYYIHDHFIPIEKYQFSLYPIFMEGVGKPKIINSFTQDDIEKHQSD

T2: full length human GP130 (leucine at position 2 changed to valine) on HEK293/Stat3-luc/gp130-2X Sort cells (human, UniProt P40189 23-918)
T2 construct: whole, on cells; also called HEK293/gp130 2X Sort
T2 sequence (looked up): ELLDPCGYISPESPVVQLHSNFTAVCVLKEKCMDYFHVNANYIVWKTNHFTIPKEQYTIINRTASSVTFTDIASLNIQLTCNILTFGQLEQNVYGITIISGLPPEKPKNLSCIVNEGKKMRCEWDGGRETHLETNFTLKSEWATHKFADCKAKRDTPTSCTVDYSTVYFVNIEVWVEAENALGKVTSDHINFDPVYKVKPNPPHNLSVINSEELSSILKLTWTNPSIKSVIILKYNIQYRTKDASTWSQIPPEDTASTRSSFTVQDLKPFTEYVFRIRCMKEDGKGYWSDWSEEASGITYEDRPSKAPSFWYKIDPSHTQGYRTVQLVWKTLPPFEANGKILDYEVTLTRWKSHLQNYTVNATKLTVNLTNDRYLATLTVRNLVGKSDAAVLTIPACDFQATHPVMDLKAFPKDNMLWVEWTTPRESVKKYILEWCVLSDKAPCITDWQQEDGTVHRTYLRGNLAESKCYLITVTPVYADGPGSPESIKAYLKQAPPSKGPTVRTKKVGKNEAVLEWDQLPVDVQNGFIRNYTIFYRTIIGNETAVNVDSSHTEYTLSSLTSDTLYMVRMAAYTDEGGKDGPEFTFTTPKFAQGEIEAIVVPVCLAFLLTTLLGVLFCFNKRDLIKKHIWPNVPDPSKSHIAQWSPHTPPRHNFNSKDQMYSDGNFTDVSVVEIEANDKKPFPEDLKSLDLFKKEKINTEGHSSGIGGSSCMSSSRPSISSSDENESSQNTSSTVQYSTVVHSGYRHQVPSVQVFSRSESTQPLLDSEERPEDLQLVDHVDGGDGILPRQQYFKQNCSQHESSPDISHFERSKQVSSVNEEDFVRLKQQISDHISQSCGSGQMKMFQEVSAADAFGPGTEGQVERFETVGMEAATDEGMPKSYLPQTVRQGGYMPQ


Experiments:
[1] = biological target: T3, macaca fascicularis LEPR extracellular domain expressed with a C-terminal myc-myc-hexahistidine tag (Macaca fascicularis, UniProt Q9MYL0 22-837 (rhesus entry)); experiment: SPR (Biacore 4000), antibody captured by anti-human Fc, 25 C
T3 construct: Monomeric reagent; the entry named is the whole tagged construct; also called mfLEPR-MMH

[2] = biological target: T4, human LEPR extracellular domain expressed with a C-terminal myc-myc-hexahistidine tag (human, UniProt P48357 22-839); experiment: as above
T4 construct: Monomeric reagent; the entry named is the whole tagged construct; also called hLEPR-MMH; hLEPR.mmh

[3] = biological target: T1, extracellular domain of human LEPR, …; experiment: FACS, 200 nM antibody, HEK293/hLEPR-GPI cells, No Leptin
Method: (§1) For the FACS analysis, 0.5×10^6 cells/well of HEK293 parental cells, HEK293/Stat3-luc/gp130-2X Sort cells, and HEK293/hLEPR-GPI cells, were incubated with 200 nM of the conventional antibodies against either GP130 or LEPR or with LEPR×GP130 bispecific antibodies, along with isotype control antibodies at 4° C. in PBS (without calcium and magnesium) containing 2% FBS.
(§2) Cells were fixed using BD CytoFix™ (Becton Dickinson, #554655) and analyzed on an IQue® (Intellicyt) Flow Cytometer. Unstained and secondary antibody alone controls were also tested for all cell lines. The results were analyzed using ForeCyt® (IntelliCyt) and FlowJo version 10 softwares to determine the geometric means of fluorescence for viable cells.

[4] = biological target: T2, full length human GP130 (leucine at …); experiment: FACS, 200 nM antibody, HEK293/gp130 2X Sort cells
Method: as §1, §2

[5] = biological target: T1, extracellular domain of human LEPR, …; experiment: FACS, 200 nM antibody, HEK293/hLEPR-GPI cells, 1 µM Leptin present
Method: as §1, §2

Row | t½ [1] [min] | t½ [2] [min] | Binding Ratio: Normalized to Unstained Sample of Each Cell Line (FL4-A) [3] [ratio] | Binding Ratio: Normalized to Unstained Sample of Each Cell Line (FL4-A) [4] [ratio] | Binding Ratio: Normalized to Unstained Sample of Each Cell Line (FL4-A) [5] [ratio] | Binder
1 | 10 | 10 |  |  |  | bsAb21237D (bispecific antibody, V domains shown, LEPR x GP130 bispecific antibody; also called H4H21237D) VH 1: EVQLVESGGGLVQPGGSLRLSCAASGFTFSNYGMTWVRQAPGKGLEWVSAITGGGGSTYYSNSVKGRFTISRDNSKNTVYLRMNSVRAEDTAVYYCAKYKWNFVDDWGQGTTVTVSS VH 2: QVQLVESGGGLVKPGGSLRLSCAASGFTFSDYYMTWIRQTPGKGLDWVSYISSSGTNKYNADSVKGRFTISRDNAKNSLYLQMNSLRAEDTAVYYCVRDPPWGMDVWGQGTTVTVSS VL: not shown
2 |  |  | 21 | 235 |  | mAb16683 (antibody, V domains shown, Conventional anti-GP130 antibody; also called mAb16683 (anti-GP130 mAb)) VH: QVQLVESGGGLVKPGGSLRLSCAASGFTFSDYYMTWIRQTPGKGLDWVSYISSSGTNKYNADSVKGRFTISRDNAKNSLYLQMNSLRAEDTAVYYCVRDPPWGMDVWGQGTTVTVSS VL: not shown
3 |  |  | 4710 |  | 4250 | mAb18445 (antibody, V domains shown, Conventional anti-LEPR antibody; also called mAB18445 (anti-LEPR mAb)) VH: QVQLQESGPGLVKPSQTLSLTCTVSGGSISSGGDYWSWIRQLPGKGLEWIGYIYYSGSAYYNPSLKSRGTISIDTSKNQFSLKLTSVTAADTAVYFCVKLRFLEWFLGGWFGPWGQGTLVTVSS VL: not shown
4 |  |  | 7020 |  | 6390 | mAb18446 (antibody, V domains shown, Conventional anti-LEPR antibody; also called mAB18446 (anti-LEPR mAb)) VH: EVQLVESGGGLVQPGGSLRLSCAASGFTFSNYGMTWVRQAPGKGLEWVSAITGGGGSTYYSNSVKGRFTISRDNSKNTVYLRMNSVRAEDTAVYYCAKYKWNFVDDWGQGTTVTVSS VL: not shown
